Results on four sequences are retold here after the supplement of paper PMC11246515.

The data set in a line: total protein half-life in vivo (active degradation + dilution); higher = more stable protein.
Setting [1] is: E. coli NCM3722 delta-clpP delta-lon delta-hslV, growth: N-lim chemostat, doubling time 6 h.
The mark [2] stands for this setting: E. coli NCM3722 delta-hslV, growth: N-lim chemostat, doubling time 6 h.
Where [3] appears, read: E. coli NCM3722 delta-smpB, growth: N-lim chemostat, doubling time 6 h.
[4] abbreviates: wild type E. coli NCM3722, growth: C-lim chemostat, doubling time 3 h.
Setting [5] is: wild type E. coli NCM3722, growth: C-lim chemostat, doubling time 6 h.
[6] abbreviates: wild type E. coli NCM3722, growth: C-lim chemostat, doubling time 12 h.
Where [7] appears, read: wild type E. coli NCM3722, growth: N-lim chemostat, doubling time 6 h.
The mark [8] stands for this setting: wild type E. coli NCM3722, growth: P-lim chemostat, doubling time 6 h.
Setting [9] is: wild type E. coli NCM3722, growth: P-lim chemostat, doubling time 12 h.
Where [10] appears, read: E. coli NCM3722 delta-clpP, growth: N-lim chemostat, doubling time 6 h.
The mark [11] stands for this setting: E. coli NCM3722 delta-lon, growth: N-lim chemostat, doubling time 6 h.
Where [12] appears, read: wild type E. coli NCM3722, growth: N-lim chemostat, doubling time 12 h.

± gives the standard deviation of the averaged measurements.

Consider “MSIKTSNTDFKTRIRQQIEDPIMRKAVANAQQRIGANRQKMVDELGHWEEWRDRAAQIRDHVLSNLDAYLYQLSEKVTQNGGHVYFARTKEDATRYILQVAQRKNARKVVKSKSMVTEEIGVNHVLQDAGIQVIETDLGEYILQLDQDPPSHVVVPAIHKDRHQIRRVLHERLGYEGPETPEAMTLFIRQKIREDFLSAEIGITGCNFAVAETGSVCLVTNEGNARMCTTLPKTHIAVMGMERIAPTFAEVDVLITMLARSAVGARLTGYNTWLTGPREAGHVDGPEEFHLVIVDNGRSEVLASEFRDVLRCIRCGACMNTCPAYRHIGGHGYGSIYPGPIGAVISPLLGGYKDFKDLPYACSLCTACDNVCPVRIPLSKLILRHRRVMAEKGITAKAEQRAIKMFAYANSHPGLWKVGMMAGAHAASWFINGGKTPLKFGAISDWMEARDLPEADGESFRSWFKKHQAQEKKNG”, for which the “total protein half-life in vivo” value under setting [1] worked out at 5.21 ± 0.71 h; the “total protein half-life in vivo” value under setting [2] turned out to be 3.96 ± 3.1 h; the “total protein half-life in vivo” value under setting [3] came to 1.76 ± 0.072 h; the “total protein half-life in vivo” value under setting [4] is 1.83 ± 0.084 h; the “total protein half-life in vivo” value under setting [5] turned out to be 3.47 ± 0.48 h; the “total protein half-life in vivo” value under setting [6] was found to be 4.06 ± 0.2 h. Moreover, the “total protein half-life in vivo” value by setting is: under setting [7], 1.72 h; under setting [8], 1.89 h; under setting [9], 3.14 ± 0.62 h.

For “MIGRLLRGGFMTAIYAYLYIPIIILIVNSFNSSRFGINWQGFTTKWYSLLMNNDSLLQAAQHSLTMAVFSATFATLIGSLTAVALYRYRFRGKPFVSGMLFVVMMSPDIVMAISLLVLFMLLGIQLGFWSLLFSHITFCLPFVVVTVYSRLKGFDVRMLEAAKDLGASEFTILRKIILPLAMPAVAAGWVLSFTLSMDDVVVSSFVTGPSYEILPLKIYSMVKVGVSPEVNALATILLVLSLVMVIASQLIARDKTKGNTGDVK [P0AFK6]”, the “total protein half-life in vivo” value reads like this: under setting [1], 5.93 h; under setting [10], 6.54 h; under setting [2], 5.12 h; under setting [11], 5.66 h; under setting [3], 5.65 ± 0.13 h; under setting [4], 3.13 ± 0.76 h. The “total protein half-life in vivo” value reads like this: under setting [6], 14 h; under setting [7], 6.23 ± 0.36 h; under setting [12], 13.3 ± 0.85 h; under setting [8], 6.269 ± 0.021 h; under setting [9], 10.5 ± 2.2 h.

Consider “MKKSTLALVVMGIVASASVQAAEIYNKDGNKLDVYGKVKAMHYMSDNASKDGDQSYIRFGFKGETQINDQLTGYGRWEAEFAGNKAESDTAQQKTRLAFAGLKYKDLGSFDYGRNLGALYDVEAWTDMFPEFGGDSSAQTDNFMTKRASGLATYRNTDFFGVIDGLNLTLQYQGKNENRDVKKQNGDGFGTSLTYDFGGSDFAISGAYTNSDRTNEQNLQSRGTGKRAEAWATGLKYDANNIYLATFYSETRKMTPITGGFANKTQNFEAVAQYQFDFGLRPSLGYVLSKGKDIEGIGDEDLVNYIDVGATYYFNKNMSAFVDYKINQLDSDNKLNINNDDIVAVGMTYQF”, for which the “total protein half-life in vivo” value reads like this: under setting [1], 6.3 h; under setting [10], more than 8 h; under setting [2], 6.65 ± 0.12 h; under setting [3], 6.18 ± 0.13 h; under setting [5], 5.98 ± 0.22 h; under setting [6], 12.6 ± 1.1 h. The “total protein half-life in vivo” value worked out at 11 ± 2.1 h under setting [12], 6.41 ± 0.31 h under setting [8] and 13.9 ± 1.1 h under setting [9].

As to “MTIWVDADACPNVIKEILYRAAERMQMPLVLVANQSLRVPPSRFIRTLRVAAGFDVADNEIVRQCEAGDLVITADIPLAAEAIEKGAAALNPRGERYTPATIRERLTMRDFMDTLRASGIQTGGPDSLSQRDRQAFAAELEKWWLEVQRSRG [P0A8D3]”, the “total protein half-life in vivo” value is, setting by setting: under setting [1], 3.56 ± 0.87 h; under setting [10], 3.08 h; under setting [2], 3.2 ± 0.18 h; under setting [11], 3.89 ± 0.53 h; under setting [3], 3.16 ± 0.032 h; under setting [4], 2.73 ± 0.094 h. Further, the “total protein half-life in vivo” value runs as follows: under setting [5], 4.33 ± 0.21 h; under setting [6], 8.06 ± 2.6 h; under setting [7], 3.55 ± 0.43 h; under setting [12], 4.5 ± 0.6 h; under setting [8], 5.28 ± 0.43 h; under setting [9], 9.109 ± 0.034 h.
